Reference: IntAct's records for PubMed 31515488

B1: Transcription factor 12 (Homo sapiens), Q99081 (parent)
chain: MNPQQQRMAAIGTDKELSDLLDFSAMFSPPVNSGKTRPTTLGSSQFSGSGIDERGGTTSWGTSGQPSPSYDSSRGFTDSPHYSDHLNDSRLGAHEGLSPTPFMNSNLMGKTSERGSFSLYSRDTGLPGCQSSLLRQDLGLGSPAQLSSSGKPGTAYYSFSATSSRRRPLHDSAALDPLQAKKVRKVPPGLPSSVYAPSPNSDDFNRESPSYPSPKPPTSMFASTFFMQDGTHNSSDLWSSSNGMSQPGFGGILGTSTSHMSQSSSYGNLHSHDRLSYPPHSVSPTDINTSLPPMSSFHRGSTSSSPYVAASHTPPINGSDSILGTRGNAAGSSQTGDALGKALASIYSPDHTSSSFPSNPSTPVGSPSPLTGTSQWPRPGGQAPSSPSYENSLHSLQSRMEDRLDRLDDAIHVLRNHAVGPSTSLPAGHSDIHSLLGPSHNAPIGSLNSNYGGSSLVASSRSASMVGTHREDSVSLNGNHSVLSSTVTTSSTDLNHKTQENYRGGLQSQSGTVVTTEIKTENKEKDENLHEPPSSDDMKSDDESSQKDIKVSSRGRTSSTNEDEDLNPEQKIEREKERRMANNARERLRVRDINEAFKELGRMCQLHLKSEKPQTKLLILHQAVAVILSLEQQVRERNLNPKAACLKRREEEKVSAVSAEPPTTLPGTHPGLSETTNPMGHM
partner: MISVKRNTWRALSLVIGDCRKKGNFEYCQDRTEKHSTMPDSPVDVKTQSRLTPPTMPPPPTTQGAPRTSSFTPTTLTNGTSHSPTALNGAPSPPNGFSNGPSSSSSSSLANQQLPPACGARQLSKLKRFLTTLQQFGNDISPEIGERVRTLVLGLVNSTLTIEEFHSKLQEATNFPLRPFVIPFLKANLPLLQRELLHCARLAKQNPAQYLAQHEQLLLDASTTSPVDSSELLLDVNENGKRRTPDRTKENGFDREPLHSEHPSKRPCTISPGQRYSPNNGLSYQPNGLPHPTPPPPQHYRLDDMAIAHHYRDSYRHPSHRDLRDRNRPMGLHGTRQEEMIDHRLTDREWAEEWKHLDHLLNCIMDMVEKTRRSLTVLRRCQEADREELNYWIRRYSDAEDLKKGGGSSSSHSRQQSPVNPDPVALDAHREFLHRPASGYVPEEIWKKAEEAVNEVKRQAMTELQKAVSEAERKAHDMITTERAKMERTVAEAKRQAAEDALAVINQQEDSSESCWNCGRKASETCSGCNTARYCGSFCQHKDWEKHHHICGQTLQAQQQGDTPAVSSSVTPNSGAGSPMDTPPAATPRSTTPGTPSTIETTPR
B2: E3 ubiquitin-protein ligase MARCHF5 (Homo sapiens), Q9NX47 (parent)
chain: MPDQALQQMLDRSCWVCFATDEDDRTAEWVRPCRCRGSTKWVHQACLQRWVDEKQRGNSTARVACPQCNAEYLIVFPKLGPVVYVLDLADRLISKACPFAAAGIMVGSIYWTAVTYGAVTVMQVVGHKEGLDVMERADPLFLLIGLPTIPVMLILGKMIRWEDYVLRLWRKYSNKLQILNSIFPGIGCPVPRIPAEANPLADHVSATRILCGALVFPTIATIVGKLMFSSVNSNLQRTILGGIAFVAIKGAFKVYFKQQQYLRQAHRKILNYPEQEEA
partner: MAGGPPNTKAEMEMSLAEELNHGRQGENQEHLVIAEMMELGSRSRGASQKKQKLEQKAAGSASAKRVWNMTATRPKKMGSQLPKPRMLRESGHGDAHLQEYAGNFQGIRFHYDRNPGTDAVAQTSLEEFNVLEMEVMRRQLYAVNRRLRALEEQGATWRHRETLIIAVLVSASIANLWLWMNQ
B3: Keratin, type II cytoskeletal 6A (Homo sapiens), P02538 (parent)
chain: MASTSTTIRSHSSSRRGFSANSARLPGVSRSGFSSVSVSRSRGSGGLGGACGGAGFGSRSLYGLGGSKRISIGGGSCAISGGYGSRAGGSYGFGGAGSGFGFGGGAGIGFGLGGGAGLAGGFGGPGFPVCPPGGIQEVTVNQSLLTPLNLQIDPTIQRVRAEEREQIKTLNNKFASFIDKVRFLEQQNKVLETKWTLLQEQGTKTVRQNLEPLFEQYINNLRRQLDSIVGERGRLDSELRGMQDLVEDFKNKYEDEINKRTAAENEFVTLKKDVDAAYMNKVELQAKADTLTDEINFLRALYDAELSQMQTHISDTSVVLSMDNNRNLDLDSIIAEVKAQYEEIAQRSRAEAESWYQTKYEELQVTAGRHGDDLRNTKQEIAEINRMIQRLRSEIDHVKKQCANLQAAIADAEQRGEMALKDAKNKLEGLEDALQKAKQDLARLLKEYQELMNVKLALDVEIATYRKLLEGEECRLNGEGVGQVNISVVQSTVSSGYGGASGVGSGLGLGGGSSYSYGSGLGVGGGFSSSSGRAIGGGLSSVGGGSSTIKYTTTSSSSRKSYKH
partner: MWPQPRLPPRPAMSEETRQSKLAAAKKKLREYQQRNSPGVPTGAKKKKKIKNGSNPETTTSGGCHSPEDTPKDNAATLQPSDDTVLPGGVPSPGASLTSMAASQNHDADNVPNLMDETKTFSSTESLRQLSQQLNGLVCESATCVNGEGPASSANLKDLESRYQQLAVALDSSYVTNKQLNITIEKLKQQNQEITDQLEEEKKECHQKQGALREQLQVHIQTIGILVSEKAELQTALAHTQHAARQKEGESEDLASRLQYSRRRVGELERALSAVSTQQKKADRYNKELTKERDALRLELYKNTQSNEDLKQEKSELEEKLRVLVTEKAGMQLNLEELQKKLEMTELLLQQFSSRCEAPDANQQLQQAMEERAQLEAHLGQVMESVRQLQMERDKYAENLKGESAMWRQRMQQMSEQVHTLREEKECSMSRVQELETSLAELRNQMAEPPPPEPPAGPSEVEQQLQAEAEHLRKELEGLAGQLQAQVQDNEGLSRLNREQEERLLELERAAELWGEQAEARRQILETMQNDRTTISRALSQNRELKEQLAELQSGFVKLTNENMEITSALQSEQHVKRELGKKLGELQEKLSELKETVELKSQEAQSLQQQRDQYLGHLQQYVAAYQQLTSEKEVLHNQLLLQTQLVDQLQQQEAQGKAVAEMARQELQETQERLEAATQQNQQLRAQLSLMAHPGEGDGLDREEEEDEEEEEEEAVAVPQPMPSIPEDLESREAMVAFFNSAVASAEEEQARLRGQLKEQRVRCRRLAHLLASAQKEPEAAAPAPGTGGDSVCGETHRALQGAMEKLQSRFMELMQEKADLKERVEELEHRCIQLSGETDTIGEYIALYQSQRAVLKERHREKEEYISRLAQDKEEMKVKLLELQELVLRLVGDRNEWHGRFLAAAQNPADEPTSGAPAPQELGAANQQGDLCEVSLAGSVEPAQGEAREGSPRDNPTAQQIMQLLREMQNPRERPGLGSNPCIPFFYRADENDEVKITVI
B4: Isoform 1 of Myotubularin-related protein 9 (Homo sapiens), Q96QG7-1 (parent)
chain: MEFAELIKTPRVDNVVLHRPFYPAVEGTLCLTGHHLILSSRQDNTEELWLLHSNIDAIDKRFVGSLGTIIIKCKDFRIIQLDIPGMEECLNIASSIEALSTLDSITLMYPFFYRPMFEVIEDGWHSFLPEQEFELYSSATSEWRLSYVNKEFAVCPSYPPIVTVPKSIDDEALRKVATFRHGGRFPVLSYYHKKNGMVIMRSGQPLTGTNGRRCKEDEKLINATLRAGKRGYIIDTRSLNVAQQTRAKGGGFEQEAHYPQWRRIHKSIERYHILQESLIKLVEACNDQTHNMDRWLSKLEASNWLTHIKEILTTACLAAQCIDREGASILIHGTEGTDSTLQVTSLAQIILEPRSRTIRGFEALIEREWLQAGHPFQQRCAQSAYCNTKQKWEAPVFLLFLDCVWQILRQFPCSFEFNENFLIMLFEHAYASQFGTFLGNNESERCKLKLQQKTMSLWSWVNQPSELSKFTNPLFEANNLVIWPSVAPQSLPLWEGIFLRWNRSSKYLDEAYEEMVNIIEYNKELQAKVNILRRQLAELETEDGMQESP
partner: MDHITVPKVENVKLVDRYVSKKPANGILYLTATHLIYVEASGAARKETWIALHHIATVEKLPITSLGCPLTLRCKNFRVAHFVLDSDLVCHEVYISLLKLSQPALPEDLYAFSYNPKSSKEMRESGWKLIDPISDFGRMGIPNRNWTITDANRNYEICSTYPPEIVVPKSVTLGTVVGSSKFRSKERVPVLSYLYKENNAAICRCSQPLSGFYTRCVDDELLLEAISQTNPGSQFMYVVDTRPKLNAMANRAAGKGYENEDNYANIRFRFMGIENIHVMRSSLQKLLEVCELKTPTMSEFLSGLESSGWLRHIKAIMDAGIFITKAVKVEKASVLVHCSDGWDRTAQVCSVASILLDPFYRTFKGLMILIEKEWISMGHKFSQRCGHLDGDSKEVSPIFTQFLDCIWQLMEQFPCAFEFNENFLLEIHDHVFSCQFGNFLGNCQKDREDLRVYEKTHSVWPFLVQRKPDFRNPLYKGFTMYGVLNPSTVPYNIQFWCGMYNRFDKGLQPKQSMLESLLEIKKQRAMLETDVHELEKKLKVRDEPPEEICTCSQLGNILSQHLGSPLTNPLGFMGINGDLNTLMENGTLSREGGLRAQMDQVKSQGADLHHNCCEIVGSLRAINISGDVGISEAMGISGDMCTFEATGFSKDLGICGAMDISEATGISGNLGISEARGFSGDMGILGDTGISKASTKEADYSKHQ
B5: Plakophilin-2 (Homo sapiens), Q99959 (parent)
chain: MAAPGAPAEYGYIRTVLGQQILGQLDSSSLALPSEAKLKLAGSSGRGGQTVKSLRIQEQVQQTLARKGRSSVGNGNLHRTSSVPEYVYNLHLVENDFVGGRSPVPKTYDMLKAGTTATYEGRWGRGTAQYSSQKSVEERSLRHPLRRLEISPDSSPERAHYTHSDYQYSQRSQAGHTLHHQESRRAALLVPPRYARSEIVGVSRAGTTSRQRHFDTYHRQYQHGSVSDTVFDSIPANPALLTYPRPGTSRSMGNLLEKENYLTAGLTVGQVRPLVPLQPVTQNRASRSSWHQSSFHSTRTLREAGPSVAVDSSGRRAHLTVGQAAAGGSGNLLTERSTFTDSQLGNADMEMTLERAVSMLEADHMLPSRISAAATFIQHECFQKSEARKRVNQLRGILKLLQLLKVQNEDVQRAVCGALRNLVFEDNDNKLEVAELNGVPRLLQVLKQTRDLETKKQITDHTVNLRSRNGWPGAVAHACNPSTLGGQGGRITRSGVRDQPDQHGLLWNLSSNDKLKNLMITEALLTLTENIIIPFSGWPEGDYPKANGLLDFDIFYNVTGCLRNMSSAGADGRKAMRRCDGLIDSLVHYVRGTIADYQPDDKATENCVCILHNLSYQLEAELPEKYSQNIYIQNRNIQTDNNKSIGCFGSRSRKVKEQYQDVPMPEEKSNPKGVEWLWHSIVIRMYLSLIAKSVRNYTQEASLGALQNLTAGSGPMPTSVAQTVVQKESGLQHTRKMLHVGDPSVKKTAISLLRNLSRNLSLQNEIAKETLPDLVSIIPDTVPSTDLLIETTASACYTLNNIIQNSYQNARDLLNTGGIQKIMAISAGDAYASNKASKAASVLLYSLWAHTELHHAYKKAQFKKTDFVNSRTAKAYHSLKD
B6: Methylthioribulose-1-phosphate dehydratase (Homo sapiens), Q96GX9 (parent)
chain: MSGCDAREGDCCSRRCGAQDKEHPRYLIPELCKQFYHLGWVTGTGGGISLKHGDEIYIAPSGVQKERIQPEDMFVCDINEKDISGPSPSKKLKKSQCTPLFMNAYTMRGAGAVIHTHSKAAVMATLLFPGREFKITHQEMIKGIKKCTSGGYYRYDDMLVVPIIENTPEEKDLKDRMAHAMNEYPDSCAVLVRRHGVYVWGETWEKAKTMCECYDYLFDIAVSMKKVGLDPSQLPVGENGIV

Variants of: B1
Conditions: with mtg8_human RUNX1T1, Q06455

Variant | effect of a mutation on the interaction
V31A | with no effect
A174V | with no effect
G64R | with no effect
G300S | with no effect

Other lines, results leading:

effect of a mutation on the interaction | Variant
with no effect | N479S
with no effect | A458V
with no effect | D565V
with no effect | L483R

Variants of: B2
Conditions: with fate1_human FATE1, Q969F0

effect of a mutation on the interaction | Variant
with no effect | D202N

Variants of: B3
Conditions: with goga2_human GOLGA2, Q08379

Variant | effect of a mutation on the interaction
L210M | with no effect
A335T | with no effect

Second part, the variant after the results:

effect of a mutation on the interaction | Variant
with no effect | V523F
with no effect | R415H
with no effect | T552S
with no effect | R559G

Variants of: B4
Conditions: with mtmr8_human MTMR8, Q96EF0

effect of a mutation on the interaction | Variant
with no effect | F127I

Variants of: B4
Conditions: with mtmr8_human MTMR8, Q96EF0
Remark: another data set of the same source

effect of a mutation on the interaction | Variant
with no effect | S126C

Variants of: B5
Conditions: with mtus2_human MTUS2, Q5JR59
Sequence of mtus2_human MTUS2, Q5JR59 (Q5JR59 whole entry): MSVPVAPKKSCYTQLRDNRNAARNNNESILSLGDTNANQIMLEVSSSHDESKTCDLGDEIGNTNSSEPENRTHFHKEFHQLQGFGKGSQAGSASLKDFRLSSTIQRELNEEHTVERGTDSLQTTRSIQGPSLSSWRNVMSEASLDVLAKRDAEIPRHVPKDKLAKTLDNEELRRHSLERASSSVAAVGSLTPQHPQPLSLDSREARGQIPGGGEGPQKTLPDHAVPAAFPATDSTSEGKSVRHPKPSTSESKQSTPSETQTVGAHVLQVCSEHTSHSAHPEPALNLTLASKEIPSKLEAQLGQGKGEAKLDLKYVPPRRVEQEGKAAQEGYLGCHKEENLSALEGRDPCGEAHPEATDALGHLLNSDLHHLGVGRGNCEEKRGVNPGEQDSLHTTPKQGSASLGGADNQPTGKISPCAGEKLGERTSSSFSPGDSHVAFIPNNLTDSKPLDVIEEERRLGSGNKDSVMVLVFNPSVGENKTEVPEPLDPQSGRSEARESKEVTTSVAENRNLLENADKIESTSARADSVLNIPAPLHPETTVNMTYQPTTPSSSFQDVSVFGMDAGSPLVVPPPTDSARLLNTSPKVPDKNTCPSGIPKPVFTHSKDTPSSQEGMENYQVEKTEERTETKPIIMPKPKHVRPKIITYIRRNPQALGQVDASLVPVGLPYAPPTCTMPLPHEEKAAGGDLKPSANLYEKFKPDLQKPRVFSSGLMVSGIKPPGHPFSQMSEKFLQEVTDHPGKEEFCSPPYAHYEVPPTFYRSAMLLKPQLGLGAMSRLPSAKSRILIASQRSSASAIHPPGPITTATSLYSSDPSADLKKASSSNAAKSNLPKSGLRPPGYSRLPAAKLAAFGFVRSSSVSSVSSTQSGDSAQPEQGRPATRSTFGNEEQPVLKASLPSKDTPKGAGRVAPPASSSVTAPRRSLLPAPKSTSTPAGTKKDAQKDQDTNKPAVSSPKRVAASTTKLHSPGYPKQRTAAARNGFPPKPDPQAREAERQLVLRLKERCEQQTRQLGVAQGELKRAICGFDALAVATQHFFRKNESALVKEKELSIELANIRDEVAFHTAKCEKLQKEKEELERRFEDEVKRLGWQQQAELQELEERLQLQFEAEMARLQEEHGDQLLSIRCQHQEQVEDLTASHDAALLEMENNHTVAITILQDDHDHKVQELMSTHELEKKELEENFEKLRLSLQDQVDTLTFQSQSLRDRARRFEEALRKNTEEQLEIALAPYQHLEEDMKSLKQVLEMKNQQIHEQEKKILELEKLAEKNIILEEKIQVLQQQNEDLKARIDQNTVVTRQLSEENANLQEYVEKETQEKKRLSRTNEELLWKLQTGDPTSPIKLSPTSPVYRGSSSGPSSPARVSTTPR

effect of a mutation on the interaction | Variant
with no effect | E58D
with no effect | L366P
with no effect | A264V

Variants of: B6
Conditions: with ntaq1_human NTAQ1, Q96HA8

effect of a mutation on the interaction | Variant
with no effect | M181V
with no effect | G111A
